According to PMC10051150, “Structure and Dynamics of Three Escherichia coli NfsB Nitro-Reductase Mutants Selected for Enhanced Activity with the Cancer Prodrug CB1954” (International Journal of Molecular Sciences, 2023):

B1: T41L/N71S NfsB (enzyme, Escherichia coli)
chain: MDIISVALKRHSTKAFDASKKLTPEQAEQIKTLLQYSPSSLNSQPWHFIVASTEEGKARVAKSAAGNYVFSERKMLDASHVVVFCAKTAMDDVWLKLVVDQEDADGRFATPEAKAANDKGRKFFADMHRKDLHDDAEWMAKQVYLNVGNFLLGVAALGLDAVPIEGFDAAILDAEFGLKEKGYTSLVVVPVGHHSVEDFNATLPKSRLPQNITLTEV
notes: Escherichia coli NfsB nitroreductase, 24 kDa subunit, expressed as the native protein; Expressed 'as the native proteins', so no tag is stated; Homodimer with one FMN per active site; also called double mutant; T41L/N71S mutant; source: E. coli BL21 (λDE3), pET11c, purified (Phenyl Sepharose, Q-Sepharose)
B2: T41Q/N71S/F124T/M127V NfsB (enzyme, Escherichia coli)
chain: MDIISVALKRHSTKAFDASKKLTPEQAEQIKTLLQYSPSSQNSQPWHFIVASTEEGKARVAKSAAGNYVFSERKMLDASHVVVFCAKTAMDDVWLKLVVDQEDADGRFATPEAKAANDKGRKFTADVHRKDLHDDAEWMAKQVYLNVGNFLLGVAALGLDAVPIEGFDAAILDAEFGLKEKGYTSLVVVPVGHHSVEDFNATLPKSRLPQNITLTEV
notes: Escherichia coli NfsB nitroreductase, 24 kDa subunit; also called quadruple mutant; T41Q/N71S/F124T/M127V mutant; source: initially purified from a UT5600 E. coli lysogen, later also recloned into pET11c; purified (Phenyl Sepharose, Q-Sepharose)
B3: T41Q/N71S/F124T NfsB (enzyme, Escherichia coli)
chain: MDIISVALKRHSTKAFDASKKLTPEQAEQIKTLLQYSPSSQNSQPWHFIVASTEEGKARVAKSAAGNYVFSERKMLDASHVVVFCAKTAMDDVWLKLVVDQEDADGRFATPEAKAANDKGRKFTADMHRKDLHDDAEWMAKQVYLNVGNFLLGVAALGLDAVPIEGFDAAILDAEFGLKEKGYTSLVVVPVGHHSVEDFNATLPKSRLPQNITLTEV
notes: Escherichia coli NfsB nitroreductase, 24 kDa subunit, expressed as the native protein; Expressed 'as the native proteins', so no tag is stated; Homodimer with one FMN per active site; also called triple mutant; T41Q/N71S/F124T mutant; source: E. coli BL21 (λDE3), pET11c, purified (Phenyl Sepharose, Q-Sepharose)

Molecular target: the molecule itself
Assay: crystal structure; crystals from 10–18% PEG 4000, 50–200 mM sodium acetate buffer pH 4.6, 15 mM nicotinic acid (where present), 15% ethylene glycol; molecular replacement with PDB 1ICR; two subunits in the asymmetric unit

Binding result, binds:
B1
B2
B3
